Article PMC4041088

Target: FLAG-tagged murine lipin 1b (murine) (UniProt Q91ZP3)
Experiment: atomic force microscopy

stoichiometry N: 12
Substance: FLAG-tagged murine lipin 1b (from UniProt Q91ZP3 1-924) (enzyme)
